The Human Domainome abundance scans (Beltran et al. 2025)

B1: PMS1 protein homolog 1, residues 572 to 637; numbered along this chain, P54277 (parent)
chain: KKPMSASALFVQDHRPQFLIENPKTSLEDATLQIEELWKTLSEEEKLKYEEKATKDLERYNSQMKR

Variants of: B1
Assay: abundance fitness (aPCA) (normalised: wild type 0, dead -1); higher = more abundant; growth selection in yeast, the domain comes from the species named
Settings: Homo sapiens

Abundance fitness of substitutions, site by site:
E58: A -0.113 | N -0.307 | G -0.158 | M -0.169 | K -0.043 | Y -0.267 | I -0.179 | Q -0.005 | H -0.09 | W -0.456 | C -0.18 | F -0.321
R15: N -0.769 | T -0.111 | A -0.039 | L 0.003 | M 0.07
D56: H -0.172 | G -0.144 | S -0.035 | E 0.104 | C -0.163 | L -0.142 | R -0.128 | T -0.145 | W -0.258 | N -0.283
S7: E 0.017 | T -0.122 | D 0.036 | N -0.055
R59: T -0.063 | N -0.169 | H -0.085 | L 0.001 | A 0.05
T25: C -0.159 | R -0.317 | W -0.531 | F 0.201 | M -0.156
Y60: K -0.075 | G -0.046 | N 0.022 | Q -0.092 | C -0.002
E45: N -0.476 | M -0.21 | A -0.258 | I -0.085 | C -0.327 | L -0.262 | V -0.169 | W -0.78
T54: G 0.07 | E 0.096 | K 0.046 | N -0.045 | Y -0.331 | W -0.346 | L -0.009
A53: Q -0.48 | V -0.26 | D -0.498 | I -0.834 | T -0.345 | N -0.363 | P -0.377 | C -0.211 | G -0.52 | S -0.121
T40: W -0.253 | C 0.115 | K -0.099 | F -0.041 | E -0.028 | D -0.101 | I -0.165 | L -0.114
S62: P -0.148 | M -0.099 | D -0.115 | N 0.017 | I -0.249 | Q -0.027 | H 0.021 | A -0.017 | F -0.067 | W -0.084 | L -0.071 | G -0.151 | T -0.227
Q63: C -0.096 | E -0.038 | I -0.348 | F -0.036
E44: D -0.081 | R -0.124 | W -0.433 | T -0.135 | V -0.113 | S -0.05 | H -0.071
M4: V -0.091 | F -0.12 | K 0.057 | R -0.106
Y49: V -0.847 | M -0.966 | N -0.717 | G -0.761 | C -0.621 | S -0.676 | Q -0.496
P16: S -0.214 | Y -0.198 | K -0.17 | A -0.06 | Q -0.041 | R -0.08 | L -0.401 | M -0.447
T31: S -0.335 | M -0.516 | E -0.142 | Q -0.359 | D -0.11 | L -0.433 | P -0.599
S26: T -0.061 | H -0.349 | G -0.223 | M -0.482 | P -0.21
P3: I -0.305 | W -0.545 | N 0.031 | S -0.605 | M -0.333
L32: P -0.349 | R 0.019 | K 0.002 | W -0.156 | E -0.144 | M 0.043
L37: R -0.091 | I -0.357 | P -0.995 | S -0.083 | Y -0.459 | V -0.127 | A -0.052 | M -0.319 | H -0.01
E43: G -0.09 | F -0.234 | Q 0.007 | S 0 | D 0.029 | W -0.046 | L -0.06 | C -0.102
W38: H 0.034 | L -1.01 | E -0.135 | D 0.097 | G -0.304
E35: D -0.86 | M -0.038 | K -0.26 | H -0.171 | W -0.774 | R -0.142 | V -0.548 | T -0.207
K46: D -0.848 | V -0.431 | L -0.685 | C -0.569 | G -0.84 | R -0.058
R66: I -0.697 | K -0.152 | T 0.019 | A 0.067 | Y -0.069 | M 0.044 | S -0.063 | F 0.095
K65: R -0.086 | D 0.084 | Y -0.207 | T -0.264 | M -0.237 | G -0.497 | N -0.163 | F -0.276 | H -0.373 | A 0.014 | L 0.029
L57: F -0.17 | H -0.112 | T -0.19 | W -0.103 | Y -0.18 | S -0.135
L27: F 0.224 | Q -0.532 | S -0.048 | T -0.101 | P 0.057 | M -0.089 | E -0.538
L47: V 0.055 | C -0.149 | M 0.017 | H 0.032
K52: W -0.33 | G -0.213 | S -0.184 | L -0.178 | N -0.285 | I -0.664 | F -0.507 | M 0.102 | H -0.272
S42: Y -1.21 | N -0.135 | G -0.165 | M -0.813 | T -0.078
L9: N -0.467 | Y -0.155 | T -0.287 | K -0.044 | M -0.167 | R -0.017 | Q 0.032 | A -0.61 | V -0.2 | S -0.254
L41: Q -0.052 | G -0.315 | E -0.295 | T -0.007 | N -0.501 | K -0.317 | H -0.467
S5: M -0.411 | K -0.179 | R -0.293 | P 0.322 | T 0.095 | L -0.283 | D -0.341 | A -0.252 | I -0.336 | W -0.874 | G -0.032
A8: E 0.147 | L -0.288 | R -0.119 | G -0.223
K55: L -0.065 | V -0.016 | A 0.059 | W -0.16
E51: C -0.215 | V -0.088 | L -0.048 | N -0.062 | Y -0.513 | Q -0.043 | D -0.072 | F -0.224 | M -0.132 | W -0.286
K2: R -0.332 | C -0.095 | G -0.696 | I -0.475 | F -0.242 | S -0.201
F10: P -0.686 | G -0.791 | A -0.608
K48: M -0.115 | A -0.095 | E -0.202 | F -0.121 | Y -0.078
N61: D -0.136 | G -0.201 | Q -0.098 | T -0.029 | W -0.489
M64: N -0.144 | R -0.136 | P -0.108 | S -0.049 | Y 0.035 | A -0.059 | H 0.08 | K -0.349 | E -0.195
K1: V -0.191 | F -0.498 | Y -0.174 | E -0.022 | M -0.057
K39: D -0.308 | S -0.081 | C -0.156 | A -0.062 | R -0.285 | P -0.252
Q33: T -0.454 | P -0.579 | V -0.329 | K -0.06 | S -0.23 | G -0.405
Q12: A 0.258
A6: W -1.87 | D -0.665 | Y -0.925 | Q -0.493 | R -0.637 | E -0.607
A30: T -0.668 | H -0.34 | W -0.632
H14: Y -0.063
D13: C -0.66
